This is an account of results in patent US20210220451A1.

Read-outs that look alike come from different tables or passages of the source.

The target of series [1] is 33-mer toxic gluten peptide from alpha-gliadin. The experiment in a line: cell-based or functional assay.
Series [2] has as its system T1, 33-mer toxic gluten peptide from alpha-gliadin.
T1 sequence: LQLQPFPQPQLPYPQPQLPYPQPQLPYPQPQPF

In series [3] the target is T2, 33-mer toxic gluten peptide from alpha-gliadin.
T2 chain: T1 sequence

Take “high molecular weight fraction (>approx. 10 kDa) of Nepenthes extract (fluid)”: in series [1], the Relative Peak Area (%) of undigested 33-mer by LC-MS after 0.5 h at 100:1 substrate:enzyme, percent of the control without enzyme was 0%.
Consider pepsin, for which the Relative Peak Area (%) of undigested 33-mer by LC-MS after 0.5 h at 100:1 substrate:enzyme, percent of the control without enzyme in series [2] turned out to be 93.2%.

B1: recombinant nepenthesin II (from N. gracilis, acid-activated) (protein)
chain: QSSSGIETPVYAGDGEYLMNVAIGTPDSSFSAIMDTGSDLIWTQCEPCTQCFSQPTPIFNPQDSSSFSTLPCESQYCQDLPSETCNNNECQYTYGYGDGSTTQGYMATETFTFETSSVPNIAFGCGEDNQGFGQGNGAGLIGMGWGPLSLPSQLGVGQFSYCMTSYGSSSPSTLALGSAASGVPEGSPSTTLIHSSLNPTYYYITLQGITVGGDNLGIPSSTFQLQDDGTGGMIIDSGTTLTYLPQDAYNAVAQAFTDQINLPTVDESSSGLSTCFQQPSDGSTVQVPEISMQFDGGVLNLGEQNILISPAEGVICLAMGSSSQLGISIFGNIQQQETQVLYDLQNLAVSFVPTQCGAS
B1: the Relative Peak Area (%) of undigested 33-mer by LC-MS after 0.5 h at 100:1 substrate:enzyme, percent of the control without enzyme in series [3] amounted to 34%.

B2: recombinant nepenthesin I (from N. gracilis, acid-activated) (protein)
chain: APTHSTSRTALNHRHEAKVTGFQIMLEHVDSGKNLTKFQLLERAIERGSRRLQRLEAMLNGPSGVETSVYAGDGEYLMNLSIGTPAQPFSAIMDTGSDLIWTQCQPCTQCFNQSTPIFNPQGSSSFSTLPCSSQLCQALSSPTCSNNFCQYTYGYGDGSETQGSMGTETLTFGSVSIPNITFGCGENNQGFGQGNGAGLVGMGRGPLSLPSQLDVTKFSYCMTPIGSSTPSNLLLGSLANSVTAGSPNTTLIQSSQIPTFYYITLNGLSVGSTRLPIDPSAFALNSNNGTGGIIIDSGTTLTYFVNNAYQSVRQEFISQINLPVVNGSSSGFDLCFQTPSDPSNLQIPTFVMHFDGGDLELPSENYFISPSNGLICLAMGSSSQGMSIFGNIQQ
B2 had a Relative Peak Area (%) of undigested 33-mer by LC-MS after 0.5 h at 100:1 substrate:enzyme, percent of the control without enzyme in series [3] of 78.7%.
